Reference: US20160252497A1 (NGM BIOPHARMACEUTICALS, published 2016)

Experiments:
[1] = biological target: T1, KLB (Klotho-beta), as used in the Biacore assay; assay: Biacore (data not shown)
T1 construct: The form of KLB in the assay is not described; also called Klotho-β

[2] = biological target: Mouse FGFR4 and mouse KLB co-expressed on rat L6 cells (mouse, UniProt Q03142 17-799; Q99N32 1-1043); assay: cell-based or functional assay
[3] = biological target: Human FGFR4 and KLB expressed endogenously on Hep3B cells (human, UniProt P22455 22-802; Q86Z14 1-1044); assay: cell-based or functional assay
[4] = biological target: Human FGFR4 on primary human hepatocytes (human, UniProt P22455 22-802); assay: cell-based or functional assay
[5] = biological target: Rat FGFR4 on primary rat hepatocytes (rat, UniProt Q498D6 17-800); assay: cell-based or functional assay
[6] = biological target: T2, Mouse FGFR4 on cells (L6 cells transfected with FGFR4 alone; primary mouse hepatocytes) (mouse, UniProt Q03142 17-799); assay: cell-based or functional assay
T2 sequence (looked up): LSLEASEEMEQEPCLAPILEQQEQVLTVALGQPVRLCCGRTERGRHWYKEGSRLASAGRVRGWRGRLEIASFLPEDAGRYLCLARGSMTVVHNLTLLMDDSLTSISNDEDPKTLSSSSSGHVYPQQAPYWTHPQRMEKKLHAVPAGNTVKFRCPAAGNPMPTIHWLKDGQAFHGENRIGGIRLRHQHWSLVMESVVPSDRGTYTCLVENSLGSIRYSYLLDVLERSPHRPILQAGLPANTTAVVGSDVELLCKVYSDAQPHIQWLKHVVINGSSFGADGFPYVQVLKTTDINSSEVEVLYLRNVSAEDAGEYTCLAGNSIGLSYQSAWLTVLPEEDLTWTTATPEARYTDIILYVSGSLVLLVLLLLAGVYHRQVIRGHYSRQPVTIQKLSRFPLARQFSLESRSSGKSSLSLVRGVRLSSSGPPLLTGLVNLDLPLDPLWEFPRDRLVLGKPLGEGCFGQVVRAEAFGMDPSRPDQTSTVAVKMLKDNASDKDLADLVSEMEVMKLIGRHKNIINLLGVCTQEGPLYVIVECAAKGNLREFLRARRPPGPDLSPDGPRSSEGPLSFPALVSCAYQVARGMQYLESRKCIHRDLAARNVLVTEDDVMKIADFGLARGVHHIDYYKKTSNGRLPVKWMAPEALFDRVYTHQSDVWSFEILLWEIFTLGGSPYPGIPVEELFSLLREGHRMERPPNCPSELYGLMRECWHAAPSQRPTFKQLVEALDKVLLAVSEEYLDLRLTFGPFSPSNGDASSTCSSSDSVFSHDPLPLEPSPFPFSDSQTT

[7] = biological target: FGFR4-KLB receptor complex (solid phase binding assay); assay: solid phase binding assay on the FGFR4-KLB receptor complex; bound ligand detected with a biotinylated FGF19-specific polyclonal antibody, absorbance at 450 nm
From the text: (§1) (B) Binding of M70 to FGFR4 by Biacore. Similar procedures to (A) were used. (C) Solid phase binding of M70 or FGF19 to FGFR4-KLB receptor complex. The bound ligands were detected using a biotinylated FGF19-specific polyclonal antibody. (D) Relative luciferase activity after stimulation with M70 or FGF19 in L6 cells transiently transfected with FGFR4 in the presence or absence of KLB. (E) M70 induces ERK phosphorylation in Hep3B cells. (F) M70 repressed Cyp7a1 expression in primary hepatocytes of mouse, rat, and human origin. Relative expression of Cyp7a1 mRNA in hepatocytes were determined by qRT-PCR and normalized to 18S RNA (mouse and rat) or actin (human) mRNA levels. (G) Repression of hepatic Cyp7a1 expression by M70 in mice. 12-week-old db/db mice were injected intraperitoneally with recombinant M70 or FGF19 protein. Mice were euthanized 4 hours after dosing and hepatic Cyp7a1 expression was evaluated by qRT-PCR and normalized to 18S RNA expression. Dose response curves of Cyp7a1 repression in mice were shown. All values represent mean±SEM.
To elucidate the molecular mechanism that underline M70's inability to induce liver tumors, the interaction of M70 to the known receptor complex of FGF19 was assessed. Surface plasmon resonance (SPR) analysis was used to measure direct binding of M70 or FGF19 to FGFR4. […]

[8] = biological target: T3, Fc fusion protein of the extracellular domain (ECD) of FGFR4; assay: Biacore SPR, ligand flowed over chip coated with FGFR4 ECD-Fc, steady state fit
T3 construct: extracellular domain; Immobilized on Biacore flow cells; also called FGFR4-Fc chimeric protein; FGFR4-Fc
From the text: as §1, with “FIGS. 9A-9G depicts M70 binding and activation of FGFR4 in vitro. (A) Biacore SPR assay of the interaction between FGF19 and FGFR4-Fc chimeric proteins immobilized on flow cells. […] (B)” for “(B)”
To elucidate the molecular mechanism that underline M70's inability to induce liver tumors, the interaction of M70 to the known receptor complex of FGF19 was assessed. […]

Mouse FGFR4 and mouse KLB co-expressed on rat L6 cells, sequence (Q99N32 whole entry, one chain of several): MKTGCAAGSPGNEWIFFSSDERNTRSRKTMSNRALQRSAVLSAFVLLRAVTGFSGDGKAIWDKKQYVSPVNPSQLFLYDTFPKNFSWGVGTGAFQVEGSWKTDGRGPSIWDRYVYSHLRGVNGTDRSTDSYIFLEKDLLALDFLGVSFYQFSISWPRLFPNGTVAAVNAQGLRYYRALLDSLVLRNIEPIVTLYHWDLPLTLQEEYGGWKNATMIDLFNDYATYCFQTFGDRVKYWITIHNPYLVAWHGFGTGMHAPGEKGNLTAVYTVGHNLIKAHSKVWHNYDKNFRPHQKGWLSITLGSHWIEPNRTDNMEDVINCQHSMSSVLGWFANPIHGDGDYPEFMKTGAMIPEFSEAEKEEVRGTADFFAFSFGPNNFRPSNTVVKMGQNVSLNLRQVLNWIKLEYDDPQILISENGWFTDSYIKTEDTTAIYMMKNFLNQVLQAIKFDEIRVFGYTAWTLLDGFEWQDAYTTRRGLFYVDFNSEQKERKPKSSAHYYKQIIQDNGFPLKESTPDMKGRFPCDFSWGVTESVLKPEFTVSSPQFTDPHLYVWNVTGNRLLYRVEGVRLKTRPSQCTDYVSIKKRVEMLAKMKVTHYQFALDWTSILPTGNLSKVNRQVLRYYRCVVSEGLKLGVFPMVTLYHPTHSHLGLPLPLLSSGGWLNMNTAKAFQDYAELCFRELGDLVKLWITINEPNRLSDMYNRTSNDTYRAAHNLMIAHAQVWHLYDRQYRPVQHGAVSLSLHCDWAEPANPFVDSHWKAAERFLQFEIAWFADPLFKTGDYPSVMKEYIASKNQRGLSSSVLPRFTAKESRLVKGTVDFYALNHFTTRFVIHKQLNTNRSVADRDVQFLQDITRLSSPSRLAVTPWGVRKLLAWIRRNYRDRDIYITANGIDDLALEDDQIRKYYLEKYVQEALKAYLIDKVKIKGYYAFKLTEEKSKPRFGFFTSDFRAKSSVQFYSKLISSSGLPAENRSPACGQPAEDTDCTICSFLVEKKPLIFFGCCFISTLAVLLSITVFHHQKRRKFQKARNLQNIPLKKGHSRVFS
Human FGFR4 and KLB expressed endogenously on Hep3B cells, sequence (P22455 22-802, chain 1 of 2): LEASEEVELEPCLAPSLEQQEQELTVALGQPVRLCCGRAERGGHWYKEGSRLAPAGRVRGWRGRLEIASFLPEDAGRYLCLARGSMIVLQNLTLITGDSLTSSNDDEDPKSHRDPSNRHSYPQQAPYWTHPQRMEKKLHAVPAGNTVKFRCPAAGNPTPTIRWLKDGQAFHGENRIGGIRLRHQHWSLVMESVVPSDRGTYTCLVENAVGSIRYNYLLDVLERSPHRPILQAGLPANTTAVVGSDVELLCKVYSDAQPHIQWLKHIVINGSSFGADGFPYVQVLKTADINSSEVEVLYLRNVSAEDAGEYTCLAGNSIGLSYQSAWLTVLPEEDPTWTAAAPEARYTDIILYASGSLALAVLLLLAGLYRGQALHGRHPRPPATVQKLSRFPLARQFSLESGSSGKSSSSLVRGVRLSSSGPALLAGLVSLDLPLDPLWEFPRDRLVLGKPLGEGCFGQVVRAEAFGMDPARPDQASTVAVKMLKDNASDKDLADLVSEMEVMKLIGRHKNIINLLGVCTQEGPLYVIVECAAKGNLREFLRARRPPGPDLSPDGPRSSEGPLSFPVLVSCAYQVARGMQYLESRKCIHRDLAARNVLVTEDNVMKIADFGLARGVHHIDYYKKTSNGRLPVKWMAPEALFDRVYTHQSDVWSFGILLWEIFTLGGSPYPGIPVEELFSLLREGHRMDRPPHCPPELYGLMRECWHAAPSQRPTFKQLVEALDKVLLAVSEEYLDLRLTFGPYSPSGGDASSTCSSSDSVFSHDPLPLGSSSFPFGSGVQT
Human FGFR4 and KLB expressed endogenously on Hep3B cells, sequence (Q86Z14 whole entry, chain 2 of 2): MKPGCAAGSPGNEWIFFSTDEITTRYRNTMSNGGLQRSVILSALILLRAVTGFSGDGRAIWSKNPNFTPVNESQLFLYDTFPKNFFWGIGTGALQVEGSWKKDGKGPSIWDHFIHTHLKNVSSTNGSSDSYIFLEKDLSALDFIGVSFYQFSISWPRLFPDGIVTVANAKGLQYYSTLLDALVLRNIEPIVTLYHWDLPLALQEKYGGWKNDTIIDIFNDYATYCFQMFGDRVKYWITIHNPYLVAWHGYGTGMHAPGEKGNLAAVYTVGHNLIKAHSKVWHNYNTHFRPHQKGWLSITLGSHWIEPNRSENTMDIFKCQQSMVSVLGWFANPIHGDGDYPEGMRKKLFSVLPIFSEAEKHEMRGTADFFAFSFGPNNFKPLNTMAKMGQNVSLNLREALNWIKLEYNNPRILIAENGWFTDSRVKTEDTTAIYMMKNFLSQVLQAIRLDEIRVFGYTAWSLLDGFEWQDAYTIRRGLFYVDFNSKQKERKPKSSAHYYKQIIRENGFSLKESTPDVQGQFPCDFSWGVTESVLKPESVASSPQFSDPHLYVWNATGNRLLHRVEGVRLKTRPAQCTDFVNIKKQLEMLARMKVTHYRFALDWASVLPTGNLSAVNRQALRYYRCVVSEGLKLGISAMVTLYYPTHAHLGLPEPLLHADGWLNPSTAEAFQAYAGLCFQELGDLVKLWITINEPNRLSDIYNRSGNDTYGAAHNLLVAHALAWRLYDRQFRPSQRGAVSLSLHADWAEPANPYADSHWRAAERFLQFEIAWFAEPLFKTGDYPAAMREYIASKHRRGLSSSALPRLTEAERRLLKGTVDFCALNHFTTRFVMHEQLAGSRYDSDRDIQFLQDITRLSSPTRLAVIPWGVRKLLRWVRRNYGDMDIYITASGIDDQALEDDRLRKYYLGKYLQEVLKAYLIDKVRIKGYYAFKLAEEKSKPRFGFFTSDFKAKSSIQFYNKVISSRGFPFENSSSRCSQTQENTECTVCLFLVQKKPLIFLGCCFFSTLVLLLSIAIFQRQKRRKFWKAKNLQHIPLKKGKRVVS
Human FGFR4 on primary human hepatocytes, sequence (P22455 22-802): as the sequence (P22455 22-802, chain 1 of 2) above
Rat FGFR4 on primary rat hepatocytes, sequence (Q498D6 17-800): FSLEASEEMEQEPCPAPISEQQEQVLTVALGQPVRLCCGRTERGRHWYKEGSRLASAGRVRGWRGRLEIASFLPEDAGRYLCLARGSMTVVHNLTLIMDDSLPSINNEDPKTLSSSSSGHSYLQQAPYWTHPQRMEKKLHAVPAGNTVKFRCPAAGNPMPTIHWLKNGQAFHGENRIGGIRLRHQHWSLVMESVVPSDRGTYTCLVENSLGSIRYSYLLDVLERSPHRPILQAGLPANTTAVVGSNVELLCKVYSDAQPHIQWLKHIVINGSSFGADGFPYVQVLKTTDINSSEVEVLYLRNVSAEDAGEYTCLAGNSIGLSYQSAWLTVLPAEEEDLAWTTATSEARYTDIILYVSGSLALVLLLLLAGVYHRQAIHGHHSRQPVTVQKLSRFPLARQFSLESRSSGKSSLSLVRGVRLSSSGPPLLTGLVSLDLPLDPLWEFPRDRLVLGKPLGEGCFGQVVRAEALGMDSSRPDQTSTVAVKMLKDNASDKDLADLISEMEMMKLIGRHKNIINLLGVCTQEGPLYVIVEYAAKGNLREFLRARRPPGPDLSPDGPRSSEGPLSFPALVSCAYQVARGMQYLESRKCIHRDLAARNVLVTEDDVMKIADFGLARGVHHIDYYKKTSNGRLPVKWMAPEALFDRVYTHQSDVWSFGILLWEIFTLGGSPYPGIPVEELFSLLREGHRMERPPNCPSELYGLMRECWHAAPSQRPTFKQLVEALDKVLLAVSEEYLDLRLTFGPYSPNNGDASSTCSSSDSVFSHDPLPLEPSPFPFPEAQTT
FGFR4-KLB receptor complex (solid phase binding assay), sequence (chain, as listed by the source, chain 1 of 2): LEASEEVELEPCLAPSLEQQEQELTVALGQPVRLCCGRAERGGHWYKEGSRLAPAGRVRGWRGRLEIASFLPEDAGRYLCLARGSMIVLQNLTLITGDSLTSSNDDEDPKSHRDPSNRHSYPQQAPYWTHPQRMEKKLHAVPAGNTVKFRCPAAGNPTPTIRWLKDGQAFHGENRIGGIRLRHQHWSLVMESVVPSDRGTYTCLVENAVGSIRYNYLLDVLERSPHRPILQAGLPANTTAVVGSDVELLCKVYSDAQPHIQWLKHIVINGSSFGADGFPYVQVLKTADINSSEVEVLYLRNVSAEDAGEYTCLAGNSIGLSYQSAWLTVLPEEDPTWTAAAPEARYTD
FGFR4-KLB receptor complex (solid phase binding assay), sequence (chain, as listed by the source, chain 2 of 2): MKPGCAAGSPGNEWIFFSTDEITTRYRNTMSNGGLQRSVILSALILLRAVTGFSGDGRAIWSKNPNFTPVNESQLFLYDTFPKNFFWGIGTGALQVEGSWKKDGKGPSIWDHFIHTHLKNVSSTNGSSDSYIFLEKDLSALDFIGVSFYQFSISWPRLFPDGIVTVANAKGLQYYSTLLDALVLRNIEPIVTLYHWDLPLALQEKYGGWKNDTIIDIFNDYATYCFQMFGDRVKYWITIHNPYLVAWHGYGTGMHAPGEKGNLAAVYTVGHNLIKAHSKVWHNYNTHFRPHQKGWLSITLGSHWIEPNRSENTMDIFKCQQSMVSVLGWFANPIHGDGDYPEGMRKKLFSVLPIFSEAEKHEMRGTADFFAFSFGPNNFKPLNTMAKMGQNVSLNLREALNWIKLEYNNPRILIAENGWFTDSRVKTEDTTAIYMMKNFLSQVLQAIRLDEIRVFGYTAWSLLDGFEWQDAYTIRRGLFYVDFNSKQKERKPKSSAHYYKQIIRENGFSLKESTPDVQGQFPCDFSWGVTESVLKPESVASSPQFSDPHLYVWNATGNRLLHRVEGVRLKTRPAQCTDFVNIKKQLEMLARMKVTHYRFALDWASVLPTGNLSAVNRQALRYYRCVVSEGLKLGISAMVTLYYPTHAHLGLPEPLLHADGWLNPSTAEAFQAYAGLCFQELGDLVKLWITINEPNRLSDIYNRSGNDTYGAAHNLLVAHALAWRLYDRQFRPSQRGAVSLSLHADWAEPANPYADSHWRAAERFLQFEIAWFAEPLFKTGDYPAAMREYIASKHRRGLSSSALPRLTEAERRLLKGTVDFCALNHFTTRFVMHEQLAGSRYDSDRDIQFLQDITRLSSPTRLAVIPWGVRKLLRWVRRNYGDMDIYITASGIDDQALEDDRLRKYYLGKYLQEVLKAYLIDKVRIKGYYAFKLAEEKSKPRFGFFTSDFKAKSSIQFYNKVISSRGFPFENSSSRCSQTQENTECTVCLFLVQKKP
T3 sequence (P22455 22-369): as the sequence (chain, as listed by the source, chain 1 of 2) above

Kd [1]: 0.0241 nM | GAL-Elk1 luciferase reporter activity in L6 cells co-expressing FGFR4 and KLB (EC50) [2]: 0.038 nM | phosphorylation and activation of ERK in Hep3B cells (EC50) [3]: 0.38 nM | repression of Cyp7a1 expression in primary human hepatocytes (IC50) [4]: 0.0068 nM | repression of Cyp7a1 expression in primary rat hepatocytes (IC50) [5]: 0.00049 nM | GAL-Elk1 luciferase reporter activity in L6 cells transfected with FGFR4 alone (reduction in potency against FGFR4 plus KLB) [6]: 500 fold | repression of Cyp7a1 expression in primary mouse hepatocytes (IC50) [6]: 0.00064 nM | EC50 (read off the curve) [7]: ~2 nM | Kd [8]: 134 nM
B1: M70 (FGF19 variant carrying 3 amino acid substitutions A30S, G31S, H33L and a 5-amino acid deletion) (ligand)
chain: MRDSSPLVHYGWGDPIRLRHLYTSGPHGLSSCFLRIRADGVVDCARGQSAHSLLEIKAVALRTVAIKGVHSVRYLCMGADGKMQGLLQYSEEDCAFEEEIRPDGYNVYRSEKHRLPVSLSSAKQRQLYKNRGFLPLSHFLPMLPMVPEEPEDLRGHLESDMFSSPLETDSMDPFGLVTGLEAVRSPSFEK
notes: Engineered variant of human FGF19; also called FGF19 variant M70; recombinant M70 protein
